A short description of this data set: soluble on expression in E. coli; label from the status in PepcDB or PDB records.
For the sequence “LVCRGSNEPTYCLCHQVSYGEMIGCDNPDCPIEWFHFACVDLTTKPKGKWFCPRCVQEK”, the “soluble on expression in E. coli” value is “soluble”.
For the sequence “LVPRGSHMTNDTSGVLTIATTHTQARYSLPEVIKAFRELFPEVRLELIQGTPQEIATLLQNGEADIGIASERLSNDPQLVAFPWFRWHHSLLVPHDHPLTQISPLTLESIAKWPLITYRQGITGRSRIDDAFARKGLLADIVLSAQDSDVIKTYVALGLGIGLVAEQSSGEQEEENLIRLDTRHLFDANTVWLGLKRGQLQRNYVWRFLELCNAGLSVEDIKRQVMES”, the “soluble on expression in E. coli” value is “soluble”.
Take “LYIRGLQPGTTDQDLVKLCQPYGKIVSTKAILDKTTNKCKGYGFVDFDSPSAAQKAVTALKASGVQAQMAKQ”: the “soluble on expression in E. coli” value is on record as “soluble”.
With “MAAAVRQDLAQLMNSSGSHKDLAGKYRQILEKAIQLSGTEQLEALKAFVEAMVNENVSLVISRQLLTDFCTHLPNLPDSTAKEVYHFTLEKIQPRVISFEEQVASIRQHLASIYEKEEDWRNAAQVLVGIPLETGQKQYNVDYKLETYLKIARLYLEDDDPVQAEAYINRASLLQNESTNEQLQIHYKVCYARVLDYRRKFIEAAQRYNELSYKTIVHESERLEALKACTGTAPILVSAGDSSALGGRAIFFKDKRCQQLAAYGILEKMYVDRIIRGNQLQEFAAMLMPHQKATTADGSSILDRAVIEHNLLSASKLYNNITFEELGALLEIPAAKAEKIASQMITEGRMNGFIDQIDGIVHFETREALPTWDKQIQSLCFQVNNLLEKISQTAPEWTAQAMEAQMAQ” the entry was “soluble”; with “MAAPAALKRISATVWELPVSYKKGMLVPARIIATEKLINAMDAGVFEQVSNVACLPGIQKYAFCMPDGHWGYGFPIGGLAAMDPETGVISPGGIGFDINCGMRLVLTTLTYEEVKPRLRELVDALFYRVPAGVGSHGFVRLSHDEFCRVAEQGSSWCLKHGYAWPEDLEMTEEHGCFTGADATKVSQRAVDRGYNQIGTLGSGNHYLEVQVARPENIFDEDTARAFGITVPNQVVIMFHCGSRGFGHQVATDYLQLFLSVMEKKYGIRTNDRELACAPFRSREGQDYFAAMKCAVNMAFANRQVILHRIREVFSDVFGRDPGDLGMDMVYDVAHNTAKLETHLVDGKKRELLVHRKGATRAFGPGMEGIPARYRETGQPVIIGGSMETGSYLLAGDPGGGDTFFTTAHGSGRTMSRHQAKKLIKGQKLQRDMEERGIYVRTASWGGLAEEAGQAYKNIDDVAEATELSHLSRRVARLVPIGNVKGLEHHHHHH”, “not soluble”.
Turning to “MAAPVAPSEPQASRAPQPPVCLLVLGMAGSGKTTFVQRLTGHLHNKGCPPYVINLDPAVHEVPFPANIDIRDTVKYKEVMKQYGLGPNGGIVTSLNLFATRFDQVMKFIEKAQNTFRYVLIDTPGQIEVFTWSASGTIITEALASSFPTVVIYVMDTSRSTNPVTFMSNMLYACSILYKTKLPFIVVMNKTDIIDHSFAVEWMQDFEAFQDALNQETTYVSNLTRSMSLVLDEFYSSLRVVGVSAVVGTGFDELCTQVTSAAEEYEREYRPEYERLKKSLANAQSNQQKEQLERLRKDMGSVALDPEAGKGNASPVLDPSDLILTRGTLDEEDEEADSDTDDIDHRVTEESREEPAFQNFMEESMAHWKRNK”, the “soluble on expression in E. coli” value is recorded as “not soluble”.
In the case of “MAAQQPLSQEQLLHFWGAHNTMGKMTRRTSQSDGGKPSGNSNAAGGAGTKPKVATPQVVAKIEQYKRDNPTIFAWEIREKLISEDVCTTPPSVSSINRILRTRAAERAAEELQMILSAQHLARPRAQQVRLPPAFPFPFPLVWPGLLPNPAQLSLLLNSGALAPPVQSGGAGGPGVFGNSGQISVDSNLNLSEDDSTLGANARRLSRSTFTNEQLQSLEEVFLRDPYPSPNERADLVKRTNLPEARIQVWFSNRRAKWRKTNANGSDRDELRAERSETDDALSISSQSPSPGGGQETGSDEGKKKTITLFKPYE”, the “soluble on expression in E. coli” value is on record as “not soluble”.
The entry for “MAARHAVRGGTVYGGGNGYRVNLVGRGTGGSTMVHHQPLNRISSQRSVAPVGRVLNRGALRNGAQQPLHVSTSSPAFHYMEEQPSPTTNGMVIQAKTPGAGVIQARHMQSQQSFPSGGPARVLMNRSSTNAGLSRMVGGGYDQQLPTAPNGRLMIPSTAVRVPGSGMASPRLQTTPQPLTKSQKAKDEMKMAYQVGREEALQQRRNDLEDDEENLGYAETYSEYTPAKLRSGMAHPDSVVESASLSSVSPPDVKYQISIPEYLIDMGHISALQLEAVIYACQMHERRMPSGERYGYLIGDGAGVGKGRTVACIIFENYLQGRKRAIWLSVSSDLKFDAERDLRDCGAPNIPVYALNKMKYAKISGKENGSIKKGVMFATYTSLIGECRGAKSRKYRSRISQLIQWFGQDYDGVIILDECHRAKNLVPTAGAKPTKTGRMVLELQKALPNARVVYASATGATEPRNMAYMTRLGLWGERQAFPEFHDFISAVERRGVGAMEIVAMDMKQRGLYLARQLSFRGVSFAVQEVQLSSEFVKMYDAAVKLWMEARRQFQTVIETMDEEERSTCKTVWGQFWACHQRFFKYLCIAAKVDTCVQLSREAIKAKKCVVIGLQSTGESATLETLEEMGGELNEFVSTAKTVLYGLIDKHFPTDASFSMGDRDIFKDFDDFERPAKRRKTRETLSFLGDVGFDTWTGVTTGMGGRVGDGVTKNITRGLSGIGRSSMSSSTGNTNNEDANSTTSESSDGSDDEVENDMISENGGESGDLESAREEAEGARTLEDGEQDEWVKALLAEAESSSDDSDEEVVKDEDEDEEAESKSGETHEQEEEFNPFMCDFTNDDPWAHNQQIVEDTPQKDRKAKKRKRDEEEAERLREKVRKREERREKKRRRAIRRAEREKQRRNEELQARGSATDFITSSRICGNGSGEQDDINPMLIKTELLAAVERLAPSLPANTLDQLIDEMGGPEYVAEMTGRRGHMVTSETGDVMYQRRNANAEVSLELINMEEKEKFMRGEKLIAIISEAASSGISLQSDRRAINKRRRVHITLELPWSADKAIQQFGRTHRSNQVSGPEYVFLISELAGEKRFASIVAKRLESLGALTHGDRRATETRDLSQFNMDNKYGRVALDTLLKTVIGQAGTPLIDPPKDYKAGEFFEDMRLYMEGVGLLAKNKTGQYTIEKEAATIPKFLNRILGLPVHAQNSLFHYFSEIVAELIAQSKHDGTYDTGIMDLGTGDDQVRKLETRVFTGRVDNGSFRVEIHKIGVERGVSWEEAMELHKEHSNDDDGFYICHPGGANTANTKKVAALVYGIGKIRMDNGARLYAITRPSTGRSPKLMTMADLSKRFHKVSIDEAKEVWKQQYDSAANMCQHNYVYGKCRTESNGTYCEVGRRTRTYFVLSGSVLSVWPIVEEVLAGSDRKSSRMQVIRVRTEQDQKIVGKLVVFFGK” is “not soluble”; for “MAARPKLHYPNGRGRMESVRWVLAAAGVEFDEEFLETKEQLYKLQDGNHLLFQQVPMVEIDGMKLVQTRSILHYIADKHNLFGKNLKERTLIDMYVEGTLDLLELLIMHPFLKPDDQQKEVVNMAQKAIIRYFPVFEKILRGHGQSFLVGNQLSLADVILLQTILALEEKIPNILSAFPFLQEYTVKLSNIPTIKRFLEPGSKKKPPPDEIYVRTVYNIFRP” it is “soluble”; for “MAASITAITVENLEYPAVVTSPVTGKSYFLGGAGERGLTIEGNFIKFTAIGVYLEDIAVASLAAKWKGKSSEELLETLDFYRDIISGPFEKLIRGSKIRELSGPEYSRKVMENCVAHLKSVGTYGDAEAEAMQKFAEAFKPVNFPPGASVFYRQSPDGILGLSFSPDTSIPEKEAALIENKAVSSAVLETMIGEHAVSPDLKRCLAARLPALLNEGAFKIGN” it is “soluble”.
With “MAASMTKPISITSLGFYSDRKNIAFSDCISICSGFRHSRPSCLDLVTKSPSNNSRVLPVVSAQISSDYIPDSKFYKVEAIVRPWRIQQVSSALLKIGIRGVTVSDVRGFGAQGGSTERHGGSEFSEDKFVAKVKMEIVVKKDQVESVINTIIEGARTGEIGDGKIFVLPVSDVIRVRTGERGEKAEKMTGDMLSPS”, the “soluble on expression in E. coli” value is given as “not soluble”.
With “MAATMNEGNAQHAWDLMKKITFAMLATRDGEKIRSRPMAAYVRPEEGAIYFLTDVRRHKDEEIAQDHHVNLGFANASAQKYVSVTGYAAISNDRAKIKELFGTEAKAWWDSADDPNIRVLKVTPEEAEYWDSPGSLISYAKMMVAAATGNRPDLGENAKVAI” the entry was “not soluble”; with “MAAVTELPKMNQELAGAVREGLELKKVETTEKNVLPTKEDVAEEKQHVERIHEIEHFDSTKLHSTPVKEKIVLPSADDIKQEKQHLELTDKINNFPSENLKKTETIEKNVLPSPTDVAREKTLQMAASFDKSALHHVETIVSTDVRVTEAQ”, “soluble”.
The entry for “MAAVVKSVALAGRPTTPDRVHEVLGRSMLVDGLDIVLDLTRSGGSYLVDAITGRRYLDMFTFVASSALGMNPPALVDDREFHAELMQAALNKPSNSDVYSVAMARFVETFARVLGDPALPHLFFVEGGALAVENALKAAFDWKSRHNQAHGIDPALGTQVLHLRGAFHGRSGYTLSLTNTKPTITARFPKFDWPRIDAPYMRPGLDEPAMAALEAEALRQARAAFETRPHDIACFVAEPIQGEGGDRHFRPEFFAAMRELCDEFDALLIFDEVQTGCGLTGTAWAYQQLDVAPDIVAFGKKTQVCGVMAGRRVDEVADNVFAVPSRLASTWGGNLTDMVRARRILEVIEAEGLFERAVQHGKYLRARLDELAADFPAVVLDPRGRGLMCAFSLPTTADRDELIRQLWQRAVIVLPAGADTVRFRPPLTVSTAEIDAAIAAVRSALPVVT” is “soluble”; for “MACGLALKRPLQHEYESFLTDETYNGEAKRARTQCPPFRAQMGTIAATLPSTSTFAQKFKEQEESVFQAATLMTRLSRNQLKTYLSSEVKNLRKRKAIPRSNDFDDDGDQRGDGCSSNYSKAYRAPSSPKSGSDSEGEAPSTSVTDRSSAKREFTMANVQMICERLLKQQEIRLRNEFEMVLTKKLDEQHQQYVQFAAEQLNSKCVSTGDDYSYSYLS” it is “not soluble”; for “MADAAPQLGKRKRELDVEEAHAASTEEKEAGVGNGTCAPVRLPFSGFRLQKVLRESARDKIIFLHGKVNEASGDGDGEDAVVILEKTPFQVEQVAQLLTGSPELQLQFSNDIYSTYHLFPPRQLNDVKTTVVYPATEKHLQKYLRQDLRLIRETGDDYRNITLPHLESQSLSIQWVYNILDKKAEADRIVFENPDPSDGFVLIPDLKWNQQQLDDLYLIAICHRRGIRSLRDLTPEHLPLLRNILHQGQEAILQRYRMKGDHLRVYLHYLPSYYHLNVHFTALGFEAPGSGVERAHLLAEVIENLECDPRHYQQRTLTFALRADDPLLKLLQEAQQS” it is “soluble”.
Consider “MADIVVDGIRATYNIRGESAALLCPPHPLMGGSRFDVRLERIAAELTKRNVSVLRFDYQRPFRSGIGEVEDAKKCVAYLKDRHDKIAVIRYSFGSVVASNVAEYCDAAVYISPLPEINSIYFKDAEIPKLFIIATRDQFVSLEESVKLYEQASKPKEVVKVETDHFYFGKFDFIAKITADFIERQSF”, for which the “soluble on expression in E. coli” value is recorded as “soluble”.
In the case of “MADKIKVSLLGSTGMVGQKMVKMLAKHPYLELVKVSASPSKIGKKYKDAVKWIEQGDIPEEVQDLPIVSTNYEDHKDVDVVLSALPNELAESIELELVKNGKIVVSNASPFRMDPDVPLINPEINWEHLELLKFQKERKGWKGILVKNPNCTAAIMSMPIKPLIEIATKSKIIITTLQAVSGAGYNGISFMAIEGNIIPYIKGEEDKIAKELTKLNGKLENNQIIPANLDSTVTSIRVPTRVGHMGVINIVTNERINIEEIKKTLKNFKSLPQQKNLPTAPKQPIIVRDEEDRPQPIIDVNAESGMAVTVGRIRHENNVLRLVVLGDNLVRGAAGITILTVEVMKELGYI”, the “soluble on expression in E. coli” value was “soluble”.
Turning to “MADKREPAPGWPILKGEYEVGDVKNSVLVITCGSHLPGKPILDAGAACTGSCKTENLGIEKVVAHIISNPNIRYLLVTGSEVKGHITGQSMMSLHANGVKENRIAGALGAIPYVENLNAAAVARFQEQVQVVNLLDTEDMGAITSKVRELASKDPGAFDADPLVVEISEEGEEEEEGGVVRPVSGEIAVLRSRLKAIEARMMDI”, the “soluble on expression in E. coli” value is “not soluble”.

The record behind these values is the DeepSol protein solubility set.
